Reference: patent US20140328819

Key:
[1] = system: FIX/cFXI2/XTEN (pCW0736), FIX-DFTRVVG-XTEN_AE864
[2] = system: FIX/cFXI3/XTEN (pCW0737), FIX-/FXI/-XTEN_AE864
[3] = system: FIX/cFXI1/XTEN (pCW0735), FIX-KLTRAET-XTEN_AE864
[4] = target: T1, soluble tissue factor (sTF), P13726
T1 chain: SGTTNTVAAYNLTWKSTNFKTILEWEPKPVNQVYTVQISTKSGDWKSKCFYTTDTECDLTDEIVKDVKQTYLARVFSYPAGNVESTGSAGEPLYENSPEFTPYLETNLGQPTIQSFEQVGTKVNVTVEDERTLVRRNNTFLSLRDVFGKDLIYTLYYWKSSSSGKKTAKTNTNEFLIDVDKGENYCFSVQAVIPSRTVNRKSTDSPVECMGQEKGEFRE

FXI protease (FXIa) of the aPTT assay plasma
Concentration by Activity (ng/ml), aPTT based factor assay [1]: 9 ng/mL | Fraction Active (activity / ELISA) [1]: 34% | clotting activity (aPTT based factor assay), fold enhancement by the FXI cleavage site [1]: In all three cases the presence of a FXI cleavage site enhanced the clotting activity by greater than 30-fold | Concentration by Activity (ng/ml), aPTT based factor assay [2]: 11 ng/mL | Fraction Active (activity / ELISA) [2]: 40% | clotting activity (aPTT based factor assay), fold enhancement by the FXI cleavage site [2]: In all three cases the presence of a FXI cleavage site enhanced the clotting activity by greater than 30-fold | Concentration by Activity (ng/ml), aPTT based factor assay [3]: 7 ng/mL | Fraction Active (activity / ELISA) [3]: 30% | clotting activity (aPTT based factor assay), fold enhancement by the FXI cleavage site [3]: In all three cases the presence of a FXI cleavage site enhanced the clotting activity by greater than 30-fold

B1: FVIIa-AE288 (activated FVII-AE288, AC398) (protein)
chain: AVFVTQEEAHGVLHRRRRANAFLEELRPGSLERECKEEQCSFEEAREIFKDAERTKLFWISYSDGDQCASSPCQNGGSCKDQLQSYICFCLPAFEGRNCETHKDDQLICVNENGGCEQYCSDHTGTKRSCRCHEGYSLLADGVSCTPTVEYPCGKIPILEKRNASKPQGRIVGGKVCPKGECPWQVLLLVNGAQLCGGTLINTIWVVSAAHCFDKIKNWRNLIAVLGEHDLSEHDGDEQSRRVAQVIIPSTYVPGTTNHDIALLRLHQPVVLTDHVVPLCLPERTFSERTLAFVRFSLVSGWGQLLDRGATALELMVLNVPRLMTQDCLQQSRKVGDSPNITEYMFCAGYSDGSKDSCKGDSGGPHATHYRGTWYLTGIVSWGQGCATVGHFGVYTRVSQYIEWLQKLMRSEPRPGVLLRAPFPGSPGTSESATPESGPGSEPATSGSETPGTSESATPESGPGSEPATSGSETPGTSESATPESGPGTSTEPSEGSAPGSPAGSPTSTEEGTSESATPESGPGSEPATSGSETPGTSESATPESGPGSPAGSPTSTEEGSPAGSPTSTEEGTSTEPSEGSAPGTSESATPESGPGTSESATPESGPGTSESATPESGPGSEPATSGSETPGSEPATSGSETPGSPAGSPTSTEEGTSTEPSEGSAPGTSTEPSEGSAPGSEPATSGSETPGTSESATPESGPGTSTEPSEGSAPGSSS
soluble tissue factor (sTF) induced clotting in FVII null plasma (Stago STA-Clot FVIIa activity assay kit) [4]: an activity equivalent to 112 U/ml of FVIIa activity
